The text below walks through data of publication PMC4652608, “The inhibition of human farnesyl pyrophosphate synthase by nitrogen-containing bisphosphonates. Elucidating the role of active site threonine 201 and tyrosine 204 residues using enzyme mutants^” (Bone, 2015).

Substrate in data set [1]: C=C(C)CCO[P@@](=O)(O)OP(=O)(O)O
As to the kind of experiment: FPPS synthase assay. The data set is classed as biochemical, Homo sapiens. The note with it: co-substrate GPP. The source says:
(§1) FPPS synthase assay on human farnesyl pyrophosphate synthase (FPPS; wtFPPS)

Substrate in data set [2]: CC(C)=CCC/C(C)=C/COP(=O)(O)OP(=O)(O)O
As to the kind of experiment: FPPS synthase assay. The data set is classed as biochemical, Homo sapiens. The note with it: co-substrate IPP.
Source text: as §1

B1: human farnesyl pyrophosphate synthase (FPPS; wtFPPS) (Homo sapiens) (protein)
chain: MNGDQNSDVYAQEKQDFVQHFSQIVRVLTEDEMGHPEIGDAIARLKEVLEYNAIGGKYNRGLTVVVAFRELVEPRKQDADSLQRAWTVGWCVELLQAFFLVADDIMDSSLTRRGQICWYQKPGVGLDAINDANLLEACIYRLLKLYCREQPYYLNLIELFLQSSYQTEIGQTLDLLTAPQGNVDLVRFTEKRYKSIVKYKTAFYSFYLPIAAAMYMAGIDGEKEHANAKKILLEMGEFFQIQDDYLDLFGDPSVTGKIGTDIQDNKCSWLVVQCLQRATPEQYQILKENYGQKEAEKVARVKALYEELDLPAVFLQYEEDSYSHIMALIEQYAAPLPPAVFLGLARKIYKRRK
notes: recombinant, pET-28a based LIC vector; TEV protease-cleaved for crystals; homodimer of 42 kDa monomers
With B1, in the data set “FPPS synthase assay [1]”, the Km (in general, the concentration of substrate that gives half-maximal velocity) was 1.8 ± 0.3 µM; the kcat (usually the number of substrate molecules converted per active site and unit of time at saturation) amounted to 0.42 s⁻¹; the kcat/Km – broadly, the second-order rate constant that governs catalysis at low substrate concentration – came to 230000 M⁻¹ s⁻¹. Also, in “FPPS synthase assay [2]”, the Km worked out at 2.1 ± 0.2 µM, the kcat was 0.42 s⁻¹ and the kcat/Km came to 200000 M⁻¹ s⁻¹.
